Source: the supplement of paper PMC9170038

Experiments:
MS2 coat protein [1] = assay: apparent KD of MS2 coat protein, switch OFF state (with FMN for OFF switches, without FMN for ON switches); designed switch direction (-1 OFF switch, 1 ON switch): 1; higher = weaker reporter binding; conditions: FMN input: 0 or 200 uM; Eterna round: R93 (includes R88 designs)
In short: (§1)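 Apparent KD was obtained for each design as the median of normalised binding-curve fits over its clusters. RNA switches transcribed on-chip from Illumina sequencing clusters were titrated with SNAP-549-labelled MS2 coat protein (twofold steps, 0.7 or 1.5 nM to 3 µM) in 100 mM Tris-HCl pH 7.5, 80 mM KCl, 4 mM MgCl2, without or with constant ligand.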

MS2 coat protein [2] = assay: apparent KD of MS2 coat protein, switch ON state; designed switch direction (-1 OFF switch, 1 ON switch): 1; higher = weaker reporter binding; conditions: FMN input: 0 or 200 uM; Eterna round: R93 (includes R88 designs)
In short: as §1

| Sequence | apparent KD of MS2 coat protein (MS2 coat protein [1]) | apparent KD of MS2 coat protein (MS2 coat protein [2]) |
| --- | --- | --- |
| AAAAAACAUGAGGAUCACCCAUGUAAUAAAACGUCAGGAUAUUGAUUUUAUUAUUUAUUGCAAGAAGGGACAAAAA [Same State 1 - Omei 2] | 0.0403 µM | 0.0204 µM |
| AAAAAACAUGAGGAUCACCCAUGUAAUAAAACGUCAGGAUAUUGAUUUUAUUAUUUAUUGCGAGAAGGGACAAAAA [Same State 1 - Omei 3] | 0.0286 µM | 0.0202 µM |
| AAAAAACAUGAGGAUCACCCAUGUAAUUAAAACGCAGGAUAUAGAAAAAAAAAAAUGUUACUAGAAGGGUGAAAAA ['Same State 1'] | 0.0629 µM | 0.113 µM |
| AAAAAACAUGAGGAUCACCCAUGUAGAAACAUGGGAGGAUAUACAAAGACGAAAGUCAAAGUAGAAGGCCUAAGAA [Mat - Same State 1 - Mod - D166] | 0.0582 µM | 0.0818 µM |
| AAAAAACAUGAGGAUCACCCAUGUCGAAAGACAUGAGGAUAUGUGUGGAAACCAUACUAUACAGAAGGCAUAAAAA [SS1 - 1009] | 0.0661 µM | 0.0826 µM |
| AAAAAACAUGAGGAUCACCCAUGUGAAAAAAUCGCAGGAUAUCCCUUUUUUAAAUGGGAGGGAGAAGGGUGAAAAA [Nob's Hobby 15 - Jieux - Same State 1] | 0.0847 µM | 0.0403 µM |
| AAAAAACAUGAGGAUCACCCAUGUGAGAACAUGGGAGGAUAUACGAGGACGAGAGUCAUAGUAGAAGGCCUAAAAA [Garnet 67] | 0.0656 µM | 0.109 µM |
| AAAAAACAUGAGGAUCACCCAUGUGCAAAAUUCGCAGGAUAUUCUUCUCUUAAAUGAGAGGGAGAAGGGUGUAAAA [Nob's Hobby 24 - Jieux - Same State 1] | 0.0433 µM | 0.0182 µM |
| AAAAACAUAGUUCAGGAUAUGGUAAUAGUCACAUGAGGAUCACCCAUGUUCAUUUAUAUGAGCGAUCAGAAGGGAGGUAAAAAAA [Mat - Same state - Malcolm Mod - D115] | 0.125 µM | 0.124 µM |
| AAAAGACAUGAGGAUCACCCAUGUAAAAACAUAGGAGGAUAUGUCGUGAAAAAAGACUUGGCAGAAGGCCUUUGUC [SS1 - 45] | 0.0764 µM | 0.0481 µM |
| AAAAGACAUGAGGAUCACCCAUGUCAAAACGUAGGAGGAUAUGUCGUGAAAAAAGACUUGGCAGAAGGCCUGUGUC [SS1 - 42] | 0.0195 µM | 0.0154 µM |
| AAAAGACAUGAGGAUCACCCAUGUCAAGACGUAGGAGGAUAUGUCGUGAAAAAAGACUUGGCAGAAGGCCUGUGUC [SS1 - 41] | 0.0214 µM | 0.015 µM |
| AAAAUAUAAAGGAAGGAUAUCCAAAGGACUACAUGAGGAUCACCCAUGUAAAGAAAGAAUAAGUGGGAGAAGGUCCAAAUAAUAA [Designing denovo 31] | 0.0683 µM | 0.027 µM |
| AAAGAAAAACUAGAGGAUAUCCGAGUGGUAACAUGAGGAUCACCCAUGUGAAGAAAGGAGCGUGAGGAGAAGGCUAGAAGAAAAA [JL Nando mod 24] | 0.146 µM | 0.011 µM |
| AAAGACAUAGUUCAGGAUAUGGUAAUAGUCACAUGAGGAUCACCCAUGUUCAUUUAUAUGAGCGAUCAGAAGGGAGGUAAAAAAA [SameState2 Malc#15] | 0.244 µM | 0.182 µM |
| AAAGUACAUGAGGAUCACCCAUGUUGAAAAAAUCGAGGAUAUGCGAAAAAAAAAAAAAAAGCAGAAGGUGAAAAAA [I 'NO' this state well 2] | 0.0386 µM | 0.0244 µM |
| AAAGUACAUGAGGAUCACCCAUGUUGGAACAAAGCAGGAUAUGUACAAAAGGAAAUAAAUACAGAAGGGCUAAGAA [Same State #2] | 0.0329 µM | 0.02 µM |
| AAAUAAAGGACUGAGGAUAUACCACAUGAAACAUGAGGAUCACCCAUGUUGAAAAACAAAGGGUGGUAGAAGGUAGUCCACAAAC [Same State 2.5a ( so lets mod hyphema)] | 0.0293 µM | 0.0172 µM |
| AAAUAAAUGACUAAGGAUAUCUCUGAGAAAACAUGAGGAUCACCCAUGUAAUAAUAAAAAGGGUGAGAGAAGGUAGUCAACAAAC [Same State 2.1 (Pariah 4 -changed stack on 9nt hairpin)] | 0.068 µM | 0.018 µM |
| AAAUAUAAAAGAUAGGAUAUACUAAAAUAAACAUGAGGAUCACCCAUGUAAAAAAAAAAACUCAUGUAGAAGGAUCAAAUAUAAA [ss2 8th] | 0.0381 µM | 0.0334 µM |
| AACAAUCUAUCUGAGGAUAUAUGUCAAAAGACAUGAGGAUCACCCAUGUAAAAACAUGAAAAAUAAUAGAAGGCAGAUAGAUUGA [SS2: 1140] | 0.0524 µM | 0.0599 µM |

| Sequence | apparent KD of MS2 coat protein (MS2 coat protein [1]) | apparent KD of MS2 coat protein (MS2 coat protein [2]) |
| --- | --- | --- |
| AACAAUCUAUCUGAGGAUAUCAAGUCAAAGACAUGAGGAUCACCCAUGUUGCAGGAAACUGCUCUUGAGAAGGCAGAUAGAUUGA [SS2: 1130] | 0.0135 µM | 0.00984 µM |
| AACAAUCUAUCUGAGGAUAUGUGUCGAAAGACAUGAGGAUCACCCAUGUAAAAACAUGAAAAAUCACAGAAGGCAGAUAGAUUGA [SS2: 1144] | 0.144 µM | 0.0593 µM |
| AACGUGACGACAUAGGAUAUGUACACACGUACAUGAGGAUCACCCAUGUGACUAGUAAUCGUGUGGCAGAAGGGUGAAGUCUCGA [Anzasousra] | 0.0314 µM | 0.0214 µM |
| AAGAAACAUGAGGAUCACCCAUGUAAAAUAAACACAGGAUAUGCGAAAAGAAACAAAGAAGCAGAAGGGUGAAGAA [Mat - Same State 1 - Tesla mod - 56] | 0.0362 µM | 0.0169 µM |
| AAGAAACAUGAGGAUCACCCAUGUAAGAUAAACACAGGAUAUGCGAAAAGAACAAAAGAAGCAGAAGGGUGAAGAA [Mat - Same State 1 - Tesla mod - D145] | 0.0424 µM | 0.0254 µM |
| AAGAAACAUGAGGAUCACCCAUGUAAGAUAAACACAGGAUAUGCGAAAGAAAUAAAUAAAGCAGAAGGGUGAAGAA [Mat - Same State 1 - Tesla mod - D148] | 0.0445 µM | 0.0224 µM |
| AAGAAACAUGAGGAUCACCCAUGUAGAAAUAUGGGAGGAUAUACGAAGACGAAAGUCGAAGUAGAAGGCCUAAGAA [Mat - Same State 1 - Meechl mod - D131] | 0.0719 µM | 0.0151 µM |
| AAGAAACAUGAGGAUCACCCAUGUCGAGAGAGACGAGGAUAUCUGAAUCGAUUAGAUUACGGAGAAGGCGUGAAAA [Same State 1.2 (Same State of Confusion2 - minimal change )] | 0.0304 µM | 0.0183 µM |
| AAGAAACAUGAGGAUCACCCAUGUGAUAAUAUGGGAGGAUAUACAAAGACGAAAGUCGAAGUAGAAGGCCUAUGAA [Garnet 43] | 0.062 µM | 0.0368 µM |
| AAUAAACAUGAGGAUCACCCAUGUGAAAAUAUGGGAGGAUAUAGGAAAAAAAAAAAAAAACUAGAAGGCCCAAAAA [SS! 1 MT 12] | 0.138 µM | 0.0753 µM |
| AAUAACUAUAACUAGGAUAUCGGAAAUAAGACAUGAGGAUCACCCAUGUAAUAAGACAAAAUAUACGAGAAGGAGUAGGGUGAAA [JR_SS002_Sub012] | 0.0532 µM | 0.0612 µM |
| AAUAGACAUGAGGAUCACCCAUGUAGAAUUAUGGGAGGAUAUACAAAGACGAGAGUCAGAGUAGAAGGCCUAGGAC [salish99-ss1-151] | 0.054 µM | 0.0207 µM |
| AAUAUAUUAAGUGAGGAUAUCAAGAAAAAAACAUGAGGAUCACCCAUGUGGGAAACACAAUAGGGUGAGAAGGUACUUAAUAUAU [Samwise Clockwise 18 - Jieux - Same State 2] | 0.00808 µM | 10.2 µM |
| AAUAUAUUAUUUAAGGAUAUCAUAGGAAACACAUGAGGAUCACCCAUGUGGGAGACUUGGACGGGUGAGAAGGUGGAUAAUAUAU [Samwise Clockwise 37 - Jieux - Same State 2] | 0.0207 µM | 0.0192 µM |
| AAUCCAACUAGUCAGGAUAUCAGGCGUAAGACAUGAGGAUCACCCAUGUACUUAGUACAAGUAACUGAGAAGGGACAGGGUGACC [JR_SS002_Sub409] | 0.0755 µM | 0.0754 µM |
| ACAAAACAUGAGGAUCACCCAUGUCAAGCUAAUCAAGGAUAUGGGAGCGGUCCGGUGCGAUCAGAAGGUGAUUAGA [Gecelear] | 0.0532 µM | 0.099 µM |
| ACAAAACAUGAGGAUCACCCAUGUCAGAAAUGGCAAGGAUAUAGAAAACAAAAACAAAAACUAGAAGGUGCAAAAC [Meechl SS1 R2 m3] | 0.154 µM | 0.0848 µM |
| AGAAAAUAUGGGUAGGAUAUAUAAAGAGAAACAUGAGGAUCACCCAUGUAAAGACGAGAGUCAAAAUAGAAGGACUAAAGAAAGAA [Meechl MS2 SS2 2] | 0.151 µM | 0.0862 µM |
| AGAAAUAAAAGAGAGGAUAUCCAAAAGAAAACAUGAGGAUCACCCAUGUAGACGAAAGUCAAAUGGGAGAAGGCUCAAAAUAAAG [80% More Helter Skelter 2 + Hairpin] | 0.0987 µM | 0.0614 µM |
| AGAAAUAAAAUGGAGGAUAUCCAAAAGAAAACAUGAGGAUCACCCAUGUAAAAGAAAAUAAAAUGGGAGAAGGCCAAAAAUAAAG | 0.0472 µM | 0.023 µM |
| AGAAGACAUGAGGAUCACCCAUGUGGGAAUAUGGGAGGAUAUACAAAGACGAGAGUCAGAGUAGAAGGCCUAGGAA [salish99-SS1-091(!)] | 0.132 µM | 0.033 µM |
